Experimental data: paper PMC7814660 (Nature, 2020)
Substitutions are numbered along the chain they refer to. Names may count otherwise.

Assays:
[1] = whole-cell patch clamp, CBX-sensitive current density, +80 mV; settings: glycan lost; control: wild type
[2] = cryo-EM structure superimposition of subunits; settings: glycan lost; control: wild type
cryo-EM structure [3] = target: the molecule itself; assay: cryo-EM structure
cryo-EM structure [4] = target: the molecule itself; assay: cryo-EM structure; remark: listed apart in the source

B1: Pannexin 1 (hsPANX1): N255A (protein)
parent chain: MAIAQLATEYVFSDFLLKEPTEPKFKGLRLELAVDKMVTCIAVGLPLLLISLAFAQEISIGTQISCFSPSSFSWRQAAFVDSYCWAAVQQKNSLQSESGNLPLWLHKFFPYILLLFAILLYLPPLFWRFAAAPHICSDLKFIMEELDKVYNRAIKAAKSARDLDMRDGACSVPGVTENLGQSLWEVSESHFKYPIVEQYLKTKKNSNNLIIKYISCRLLTLIIILLACIYLGYYFSLSSLSDEFVCSIKSGILRNDSTVPDQFQCKLIAVGIFQLLSVINLVVYVLLAPVVVYTLFVPFRQKTDVLKVYEILPTFDVLHFKSEGYNDLSLYNLFLEENISEVKSYKCLKVLENIKSSGQGIDPMLLLTNLGMIKMDVVDGKTPMSAEMREEQGNQTAELQGMNIDSETKANNGEKNARQRLLDSSC
other: channel current [1]: changes
structure_or_conformation [2]: changes

B2: glycosylation-deficient mutant N255A of human Pannexin 1 (N255A-hsPANX1) (natural protein, UniProt Q96RD7 1-426, looked up)
chain: B1 parent chain with N255A
ratio of gap junctions to hemichannels (cryo-EM structure [3]): ~0.2 gap junctions : hemichannels

B3: wild type human Pannexin 1 (wt-hsPANX1) (natural protein, UniProt Q96RD7 1-426, looked up)
chain: B1 parent chain
modifications: N-glycosylated at N255 (N-acetylglucosamine modelled)
stoichiometry N (cryo-EM structure [4]): 7

B4: caspase 7-cleaved human Pannexin 1 (ΔCTT-hsPANX1) (domain or fragment, UniProt Q96RD7 1-379, looked up)
chain: MAIAQLATEYVFSDFLLKEPTEPKFKGLRLELAVDKMVTCIAVGLPLLLISLAFAQEISIGTQISCFSPSSFSWRQAAFVDSYCWAAVQQKNSLQSESGNLPLWLHKFFPYILLLFAILLYLPPLFWRFAAAPHICSDLKFIMEELDKVYNRAIKAAKSARDLDMRDGACSVPGVTENLGQSLWEVSESHFKYPIVEQYLKTKKNSNNLIIKYISCRLLTLIIILLACIYLGYYFSLSSLSDEFVCSIKSGILRNDSTVPDQFQCKLIAVGIFQLLSVINLVVYVLLAPVVVYTLFVPFRQKTDVLKVYEILPTFDVLHFKSEGYNDLSLYNLFLEENISEVKSYKCLKVLENIKSSGQGIDPMLLLTNLGMIKMDVVD
binding result (cryo-EM structure [4]): binds
